The record followed here is patent publication US20120121591A1 (priority 2009, published 2012).

Data set [1] concerns the target T1, human Kv1.1 (Homo sapiens, UniProt Q09470). Description: cell-based or functional assay.
Data set [2] concerns the target T2, human Kv1.3 (Homo sapiens, UniProt P22001). The experiment in a line: cell-based or functional assay.
Data set [3] concerns the target T1, human Kv1.1. The experiment in a line: cell-based or functional assay. The source holds these as a separate data set.
Data set [4] concerns the target T2, human Kv1.3. Description: cell-based or functional assay. This is another data set of the same source.
Data set [5] has as its target T2, human Kv1.3. The class given is cell-based. The following applies: for IC50: read-out: Kv1.3 IC50, whole cell patch clamp. For orientation: In patch-clamp work, channel activity is measured electrically.
The next data set concerns the target hKv1.3 (Homo sapiens, UniProt P22001). The experiment in a line: cell-based. It is filed as cell-based. The conditions noted are these: read-out: Kv1.3 (IWQ) IC50 (nM, Avg).
For data set [6], the system named is IL-2 secretion from T cells in human whole blood. The class given is cell-based.
The test system of data set [7] is IFN-g secretion from T cells in human whole blood. The class given is cell-based.
The format of data set [8] is in vivo, rat. The following applies: Sprague-Dawley rats. The source says:
Single subcutaneous doses were delivered to animals and serum was collected at various time points after injection. Studies in rats, dogs (beagles), and cynomolgus monkeys involved two to three animals per dose group, with blood and serum collection occurring at various time points over the course of the study. Male Sprague-Dawley (SD) rats (about 0.3 kg), male beagles (about 10 kg) and male cynomolgus monkeys (about 4 kg) were used in the studies described herein (n=3 animals per dose group). Approximately 5 male CD-1 mice were used per dose and time point in our mouse pharmacokinetic studies. Serum samples were stored frozen at −80° C., until analysis in an enzyme-linked immunosorbent assay (ELISA).
Single subcutaneous doses were delivered to animals and serum was collected at various time points after injection. Three animals were used per dose group, with blood and serum collection occurring at various time points over the course of the study. Serum samples were stored frozen at −80° C., until analysis in an enzyme-linked immunosorbent assay (ELISA). […] A brief description of these ELISA protocols is provided: […]

For data set [9], the target named is T1, human Kv1.1. It is filed as cell-based. The conditions noted are these: read-out: Kv1.1 IC50, whole cell patch clamp.
The subject of data set [10] is human CD34-derived mast cells.

Where two headings read alike, the source gives them in different places. No end group written: not given here.

T1 sequence (Q09470 whole entry): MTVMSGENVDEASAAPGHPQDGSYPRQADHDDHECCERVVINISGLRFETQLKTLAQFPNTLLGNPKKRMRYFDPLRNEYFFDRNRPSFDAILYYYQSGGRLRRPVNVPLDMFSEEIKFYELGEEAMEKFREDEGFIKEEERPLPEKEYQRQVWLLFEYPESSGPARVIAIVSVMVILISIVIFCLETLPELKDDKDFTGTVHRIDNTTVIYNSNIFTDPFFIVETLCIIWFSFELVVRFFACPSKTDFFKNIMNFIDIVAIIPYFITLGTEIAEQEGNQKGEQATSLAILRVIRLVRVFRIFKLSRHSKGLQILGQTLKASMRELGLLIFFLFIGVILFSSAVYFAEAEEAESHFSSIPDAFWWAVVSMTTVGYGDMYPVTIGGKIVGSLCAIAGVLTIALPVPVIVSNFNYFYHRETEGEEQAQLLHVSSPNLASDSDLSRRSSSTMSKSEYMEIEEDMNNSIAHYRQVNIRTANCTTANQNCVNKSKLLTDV
T2 sequence (P22001 whole entry): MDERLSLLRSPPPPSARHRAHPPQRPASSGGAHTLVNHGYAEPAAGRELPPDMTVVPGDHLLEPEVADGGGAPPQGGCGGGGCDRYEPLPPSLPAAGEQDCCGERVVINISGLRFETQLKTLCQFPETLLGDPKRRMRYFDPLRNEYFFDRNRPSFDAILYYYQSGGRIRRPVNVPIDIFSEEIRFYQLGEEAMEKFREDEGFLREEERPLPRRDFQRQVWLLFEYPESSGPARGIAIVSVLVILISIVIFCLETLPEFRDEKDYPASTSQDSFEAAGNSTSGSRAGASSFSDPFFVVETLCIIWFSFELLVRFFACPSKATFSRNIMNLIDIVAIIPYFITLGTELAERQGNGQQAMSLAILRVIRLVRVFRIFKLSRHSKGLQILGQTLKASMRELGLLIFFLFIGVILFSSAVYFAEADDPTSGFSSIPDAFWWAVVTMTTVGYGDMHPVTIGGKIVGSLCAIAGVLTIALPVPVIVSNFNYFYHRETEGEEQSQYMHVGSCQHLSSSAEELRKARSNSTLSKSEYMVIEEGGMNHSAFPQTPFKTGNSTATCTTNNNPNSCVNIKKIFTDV
Sequence of hKv1.3 (P22001 whole entry): as above

20 kDa PEG-ShK (peptide) came in with a Kv1.1 (IWQ) IC50 with human Kv1.1 [1] of 0.11 nM. Besides, in the data set with human Kv1.3 [2], the Kv1.3 (IWQ) IC50 worked out at 1.21 nM, the WB (IFNg) IC50 was 0.855 nM and the WB (IL-2) IC50 came out at 0.387 nM. For the same molecule, in the data set with human Kv1.1 [3], the Kv1.1 IC50 (whole cell patch clamp) amounted to 1.63 nM. In the data set with human Kv1.3 [4], the Kv1.3 IC50 (whole cell patch clamp) stood at 0.299 nM, the WB (IFNg) IC50 came out at 0.84 nM and the WB (IL-2) IC50 came to 0.38 nM.
Turning to “20 kDa-PEG-ShK: ShK conjugated with an N-terminal 20 kDa PEG moiety”, the IC50 worked out at 0.299 nM with human Kv1.3 [5]; 1.21 nM with hKv1.3; 0.38 nM in data set [6] (read-out: WB (IL-2) IC50); 0.387 nM in data set [6] (read-out: WB (IL-2) IC50 (nM, Avg)); 0.84 nM in data set [7] (read-out: WB (IFNg) IC50); 0.855 nM in data set [7] (read-out: WB (IFNg) IC50 (nM, Avg)). In addition, the AUC0-inf is reported as 6,020 ng · hr · mL^−1 in data set [8] (SC 0.3 mg/kg) and 42374 ± 10,237 ng · hr · mL^−1 in data set [8] (SC 2 mg/kg). Further, the AUC0-t in data set [8] (SC 0.3 mg/kg) was 6011 ng·h/mL; in [8] (SC 2 mg/kg), 42347 ± 10,228 ng · hr · mL^−1. The Cmax was 165 ng/mL in data set [8] (SC 0.3 mg/kg) and 1138 ± 404 ng/mL in data set [8] (SC 2 mg/kg). Also, the “DNAUC (0-inf)” value in [8] (SC 0.3 mg/kg) came out at 20065; in data set [8] (SC 2 mg/kg), 21187. The figures for the MRT in data set [8] (SC 0.3 mg/kg) and in data set [8] (SC 2 mg/kg) were 27 h and 37 ± 3 h, respectively. Moreover, the time of peak concentration (Tmax) in data set [8] (SC 0.3 mg/kg) is reported as 24 h; in data set [8] (SC 2 mg/kg), 24 ± 0 h.
In the data set with human Kv1.1 [1], 30kDaPEG-ShK (peptide) registered a Kv1.1 (IWQ) IC50 of 0.182 nM. Besides, in the data set with human Kv1.3 [2], the Kv1.3 (IWQ) IC50 was found to be 1.93 nM, the WB (IFNg) IC50 was found to be 2.42 nM and the WB (IL-2) IC50 came out at 0.372 nM.
Consider 30kPEG-[Lys16]ShK (peptide), for which, in the data set with human Kv1.1 [1], the Kv1.1 (IWQ) IC50 was 33.3 nM. In the data set with human Kv1.3 [2], this molecule gave a Kv1.3 (IWQ) IC50 of 0.454 nM. The same molecule returned a Kv1.1 (PX) IC50 with human Kv1.1 [3] of 1070 nM. For the same molecule, in the data set with human Kv1.3 [4], the Kv1.3 (PX) IC50 was determined as 1.2 nM, the WB (IFNg) IC50 was found to be 0.491 nM and the WB (IL-2) IC50 stood at 0.282 nM.
“Bivalent Fc-L10-ShK[1-35] homodimer: bivalent IgG1 Fc-L10-ShK[1-35] peptibody, Example 1 of WO2008/088422A2 (GGGGSGGGGSRSCIDTIPKSRCTAFQCKHSMKYRLSFCRKTCGTC; not fully specified (N-terminus); ends and bridges not checked; also: homodimer (bivalent Fc peptibody))”: the IC50 with human Kv1.1 [9] came out at 0.067 nM; in data set [6] (read-out: WB (IL-2) IC50), 0.386 nM; in [7] (read-out: WB (IFNg) IC50) it was 0.32 nM.
Regarding “Bivalent Fc-L10-ShK[2-35] homodimer: bivalent IgG1 Fc-L10-ShK[2-35] peptibody, Example 2 of WO2008/088422A2 (Fc-GGGGSGGGGSSCIDTIPKSRCTAFQCKHSMKYRLSFCRKTCGTC; ends and bridges not checked; also: homodimer via IgG1 Fc)”, in the data set with human Kv1.3 [5], the “Kv1.1/Kv1.3 Selectivity Ratio” value was 3.54. For the same molecule, the IC50 with human Kv1.3 [5] was found to be 0.116 nM; in the data set with human Kv1.1 [9], 0.411 nM; in data set [6] (read-out: WB (IL-2) IC50), 0.585 nM; in [7] (read-out: WB (IFNg) IC50), 2.29 nM. Further, in data set [6], the “Potency Relative to ShK (WB, IL2)” value is 8.73.
In turn, HmK (peptide) returned a Kv1.1 (IWQ) IC50 in the data set with human Kv1.1 [1] of 0.015 nM. For the same molecule, in the data set with human Kv1.3 [2], the Kv1.3 (IWQ) IC50 turned out to be 0.9 nM, the WB (IFNg) IC50 is 1.2 nM and the WB (IL-2) IC50 stood at 0.85 nM.
On to “MCDP: basic secretagogue, positive control (IKCNCKRHVIKPHICRKICGKN; ends and bridges not checked; cysteine pairing not given here; UniProt P01499 28-49, looked up)”, for which the “Degranulation / histamine release of human CD34-derived mast cells” value in [10] was “highly active”.
In the data set with human Kv1.3 [4], “Monovalent Fc/Fc-L10-ShK[2-35] heterodimer (Fc fusion)” had a WB (IFNg) IC50 of 5.2 nM and a WB (IL-2) IC50 of 2.15 nM.
[1-Nal1]ShK (peptide): the Kv1.1 (IWQ) IC50 with human Kv1.1 [1] came to 0.005 nM. In the data set with human Kv1.3 [2], the Kv1.3 (IWQ) IC50 came to 0.225 nM, the WB (IFNg) IC50 stood at 0.247 nM and the WB (IL-2) IC50 was found to be 0.222 nM.
[1-Nal15]ShK (peptide) showed a Kv1.1 (IWQ) IC50 with human Kv1.1 [1] of 0.009 nM. In the data set with human Kv1.3 [2], the Kv1.3 (IWQ) IC50 is 0.072 nM, the WB (IFNg) IC50 amounted to 0.291 nM and the WB (IL-2) IC50 was 0.184 nM.
In the same order, the values of [1-Nal19]ShK (peptide) are 0.001 nM, 0.277 nM, 0.255 nM and 0.153 nM.
Taken in the same sequence, the figures for [1-Nal23]ShK (peptide) were 3.3 nM, 3.3 nM, 100 nM and 100 nM.
As for [1-Nal31]ShK (peptide), in the data set with human Kv1.1 [1], the Kv1.1 (IWQ) IC50 came to 0.004 nM.
In the data set with human Kv1.3 [2], [1-Nal34]ShK (peptide) returned a Kv1.3 (IWQ) IC50 of 0.077 nM, a WB (IFNg) IC50 of 0.063 nM and a WB (IL-2) IC50 of 0.018 nM.
In the data set with human Kv1.3 [2], [Dab16]ShK (peptide) displayed a Kv1.3 (IWQ) IC50 of 0.082 nM and a WB (IL-2) IC50 of 0.086 nM.
[Nle21]ShK (peptide) yielded a Kv1.1 (IWQ) IC50 with human Kv1.1 [1] of 0.015 nM. Besides, in the data set with human Kv1.3 [2], the Kv1.3 (IWQ) IC50 came to 0.04 nM, the WB (IFNg) IC50 turned out to be 0.303 nM and the WB (IL-2) IC50 came out at 0.153 nM.
Regarding “substance P: basic secretagogue, positive control”, in data set [10], the “Degranulation / histamine release of human CD34-derived mast cells” value is on record as “highly active”.

B1: Bivalent Fc-L10-ShK[2-35] homodimer (Fc fusion)
chain: GGGGSGGGGSSCIDTIPKSRCTAFQCKHSMKYRLSFCRKTCGTC
modifications: not fully specified (N-terminus); ends and bridges not checked; also: homodimer via Fc
Regarding B1, the Kv1.1 IC50 (whole cell patch clamp) with human Kv1.1 [3] was found to be 0.411 nM. Further, in the data set with human Kv1.3 [4], the Kv1.3 IC50 (whole cell patch clamp) worked out at 0.116 nM, the WB (IFNg) IC50 stood at 2.29 nM and the WB (IL-2) IC50 was 0.585 nM.

B2: Bivalent Fc-L10-ShK[1-35] homodimer (Fc fusion)
chain: GGGGSGGGGSRSCIDTIPKSRCTAFQCKHSMKYRLSFCRKTCGTC
modifications: not fully specified (N-terminus); ends and bridges not checked; also: homodimer via Fc
Regarding B2, in the data set with human Kv1.1 [3], the Kv1.1 IC50 (whole cell patch clamp) came to 0.067 nM. In the data set with human Kv1.3 [4], this molecule showed a Kv1.3 IC50 (whole cell patch clamp) of 0.015 nM, a WB (IFNg) IC50 of 0.32 nM and a WB (IL-2) IC50 of 0.386 nM.

The IC50 is the concentration that gives 50% inhibition. Broadly, the Cmax is the highest concentration seen after dosing. As a reminder, the MRT is the average time that molecules of a dose stay in the body. By Tmax is commonly meant the time from dosing to the highest level.
